B1: Zinc finger homeobox protein 4, residues 2562 to 2617; numbered along this chain, Q86UP3 (parent)
chain: RLRTTITPEQLEILYEKYLLDSNPTRKMLDHIAREVGLKKRVVQVWFQNTRARERK

± gives the uncertainty stated by the source.

The series covers variants of B1. The experiment in a line: abundance fitness (aPCA) (normalised: wild type 0, dead -1); higher = more abundant; growth selection in yeast, the domain comes from the species named. Particulars: Homo sapiens.
In the case of RLRTTITPEQLEILYEKYELDSNPTRKMLDHIAREVGLKKRVVQVWFQNTRARERK [L19E], the abundance fitness is -0.136 ± 0.11. To RLRTTITPEQLEILYEKYVLDSNPTRKMLDHIAREVGLKKRVVQVWFQNTRARERK [L19V] belongs -0.055 ± 0.064; to RLRTTITPEQLEILYEKYFLDSNPTRKMLDHIAREVGLKKRVVQVWFQNTRARERK [L19F], -0.065 ± 0.13. As to RLRTTITPEQLEILYEKYNLDSNPTRKMLDHIAREVGLKKRVVQVWFQNTRARERK [L19N], the abundance fitness was -0.091 ± 0.14.

Regarding RLRTTITPEQLEILYEKYGLDSNPTRKMLDHIAREVGLKKRVVQVWFQNTRARERK [L19G], the abundance fitness was -0.023 ± 0.049. To RLRTTITPEQLEILYEKYWLDSNPTRKMLDHIAREVGLKKRVVQVWFQNTRARERK [L19W] belongs -0.229 ± 0.085.

With RLRTTITPEQLEILYEKYQLDSNPTRKMLDHIAREVGLKKRVVQVWFQNTRARERK [L19Q], the abundance fitness was -0.214 ± 0.21. To RLRTTITPEQLEILYEKYRLDSNPTRKMLDHIAREVGLKKRVVQVWFQNTRARERK [L19R] belongs -0.112 ± 0.071; to RLRTTITPEQLEILYEKYSLDSNPTRKMLDHIAREVGLKKRVVQVWFQNTRARERK [L19S], -0.034 ± 0.071.

Turning to RLRTTITPEQLEILYEKYMLDSNPTRKMLDHIAREVGLKKRVVQVWFQNTRARERK [L19M], the abundance fitness was -0.131 ± 0.1. For RLRTTITPEQLEILYEKYTLDSNPTRKMLDHIAREVGLKKRVVQVWFQNTRARERK [L19T] the value was -0.175 ± 0.11; for RLRTTITPEQLEILYEKYILDSNPTRKMLDHIAREVGLKKRVVQVWFQNTRARERK [L19I], 0.196 ± 0.14; for RLRTTITPEQLEILYEKYKLDSNPTRKMLDHIAREVGLKKRVVQVWFQNTRARERK [L19K], -0.154 ± 0.12. For RLRTTITPEQLEILYEKYLLDGNPTRKMLDHIAREVGLKKRVVQVWFQNTRARERK [S22G] the value was -0.059 ± 0.059; for RLRTTITPEQLEILYEKYLLDVNPTRKMLDHIAREVGLKKRVVQVWFQNTRARERK [S22V], -0.403 ± 0.1. To RLRTTITPEQLEILYEKYLLDHNPTRKMLDHIAREVGLKKRVVQVWFQNTRARERK [S22H] belongs -0.289 ± 0.079.

Take RLRTTITPEQLEILYEKYLLDKNPTRKMLDHIAREVGLKKRVVQVWFQNTRARERK [S22K]: the abundance fitness is -0.305 ± 0.12.

As for RLRTTITPEQLEILYEKYLLDFNPTRKMLDHIAREVGLKKRVVQVWFQNTRARERK [S22F], the abundance fitness was -0.168 ± 0.057. Consider RLRTTITPEQLEILYEKYLLDDNPTRKMLDHIAREVGLKKRVVQVWFQNTRARERK [S22D], for which the abundance fitness was found to be 0.035 ± 0.12. For RLRTTITPEQLEILYEKYLLDRNPTRKMLDHIAREVGLKKRVVQVWFQNTRARERK [S22R] the value was -0.358 ± 0.067; for RLRTTITPEQLEILYEKYLLDPNPTRKMLDHIAREVGLKKRVVQVWFQNTRARERK [S22P], -0.402 ± 0.14. For RLRTTITPEQLEILYEKYLLDINPTRKMLDHIAREVGLKKRVVQVWFQNTRARERK [S22I] the value was -0.436 ± 0.16; for RLRTTITPEQLEILYEKYLLDMNPTRKMLDHIAREVGLKKRVVQVWFQNTRARERK [S22M], -0.155 ± 0.12; for RLRTTITPEQLEILYEKYLLDNNPTRKMLDHIAREVGLKKRVVQVWFQNTRARERK [S22N], -0.429 ± 0.15. For RLRTTITPEQLEILYEKYLLDTNPTRKMLDHIAREVGLKKRVVQVWFQNTRARERK [S22T] the value was -0.078 ± 0.059.

RLRTTITPEQLEILYEKYLLDCNPTRKMLDHIAREVGLKKRVVQVWFQNTRARERK [S22C]: the abundance fitness is -0.075 ± 0.13. To RLRTTITPEQLEILYEKYLLDYNPTRKMLDHIAREVGLKKRVVQVWFQNTRARERK [S22Y] belongs -0.772 ± 0.18; to RLRTTITPEQLEILYEKYLLDENPTRKMLDHIAREVGLKKRVVQVWFQNTRARERK [S22E], 0.248 ± 0.1. To RLRTTITPEQLEILYEKYLLDWNPTRKMLDHIAREVGLKKRVVQVWFQNTRARERK [S22W] belongs -0.461 ± 0.072.

For the variant RLRTTITPEQLEILYEKYLLDLNPTRKMLDHIAREVGLKKRVVQVWFQNTRARERK [S22L], the abundance fitness was -0.56 ± 0.088.

With RLRTTITPEQLEILYEKYLKDSNPTRKMLDHIAREVGLKKRVVQVWFQNTRARERK [L20K], the abundance fitness was 0.035 ± 0.11.

RLRTTITPEQLEILYEKYLDDSNPTRKMLDHIAREVGLKKRVVQVWFQNTRARERK [L20D]: the abundance fitness is -0.333 ± 0.15. Consider RLRTTITPEQLEILYEKYLWDSNPTRKMLDHIAREVGLKKRVVQVWFQNTRARERK [L20W], for which the abundance fitness was -0.124 ± 0.074. For RLRTTITPEQLEILYEKYLADSNPTRKMLDHIAREVGLKKRVVQVWFQNTRARERK [L20A] the value was -0.103 ± 0.07; for RLRTTITPEQLEILYEKYLPDSNPTRKMLDHIAREVGLKKRVVQVWFQNTRARERK [L20P], -0.652 ± 0.21; for RLRTTITPEQLEILYEKYLVDSNPTRKMLDHIAREVGLKKRVVQVWFQNTRARERK [L20V], -0.02 ± 0.063. For RLRTTITPEQLEILYEKYLRDSNPTRKMLDHIAREVGLKKRVVQVWFQNTRARERK [L20R], the abundance fitness is -0.162 ± 0.075. To RLRTTITPEQLEILYEKYLMDSNPTRKMLDHIAREVGLKKRVVQVWFQNTRARERK [L20M] belongs -0.112 ± 0.068. RLRTTITPEQLEILYEKYLSDSNPTRKMLDHIAREVGLKKRVVQVWFQNTRARERK [L20S]: the abundance fitness is -0.193 ± 0.058.

Consider RLRTTITPEQLEILYEKYLQDSNPTRKMLDHIAREVGLKKRVVQVWFQNTRARERK [L20Q], for which the abundance fitness is -0.182 ± 0.072. For RLRTTITPEQLEILYEKYLTDSNPTRKMLDHIAREVGLKKRVVQVWFQNTRARERK [L20T], the abundance fitness is -0.19 ± 0.092.

For RLRTTITPEQLEILYEKYLGDSNPTRKMLDHIAREVGLKKRVVQVWFQNTRARERK [L20G], the abundance fitness is -0.114 ± 0.059.

As for RLRTTITPEQLEILYEKYLFDSNPTRKMLDHIAREVGLKKRVVQVWFQNTRARERK [L20F], the abundance fitness is -0.062 ± 0.082.

As to RLRTTITPEQLEILYEKYLCDSNPTRKMLDHIAREVGLKKRVVQVWFQNTRARERK [L20C], the abundance fitness is -0.236 ± 0.07. For RLRTTITPEQLEILYEKYLIDSNPTRKMLDHIAREVGLKKRVVQVWFQNTRARERK [L20I] the value was -0.079 ± 0.072. For the variant RLRTTITPEQLEILYEKYLEDSNPTRKMLDHIAREVGLKKRVVQVWFQNTRARERK [L20E], the abundance fitness is -0.092 ± 0.08. To RLRTTITPEQLEILYEKYLNDSNPTRKMLDHIAREVGLKKRVVQVWFQNTRARERK [L20N] belongs -0.122 ± 0.084.

(Values after the Human Domainome abundance scans (Beltran et al. 2025).)
